From paper doi:10.1101/2023.12.12.571217 (2023)
Each block holds one binder with its values, some of them ahead of it. Positions of bridges follow the written chain, without caps; N, C: chain ends.

Tests used:
[1] = target: T1, N-terminally biotinylated PADI4 (bio-His-PADI4), recombinant human peptidylarginine deiminase IV (human, UniProt Q9UM07 1-663, biotin on the N-terminal Avi-Tag (BirA co-expression)); test: SPR
[2] = target: PADI4 variant R394A (human, UniProt Q9UM07 1-663, R394 with an alanine); test: SPR
[3] = target: PADI4 variant C166F (human, UniProt Q9UM07 1-663, C166 with bulky phenylalanine); test: SPR
[4] = target: PADI4_D165A (human, UniProt Q9UM07 1-663, D165A); test: SPR
[5] = target: PADI4 variant D168A (human, UniProt Q9UM07 1-663, D168A); test: SPR
[6] = target: T1, N-terminally biotinylated PADI4 …; test: SPR; remark: listed apart in the source
[7] = target: PADI4 variant E167A (human, UniProt Q9UM07 1-663, E167A); test: SPR
[8] = target: PADI4_N373A; test: SPR
[9] = target: T1, N-terminally biotinylated PADI4 …; test: SPR; 0 mM CaCl2
[10] = target: T1, N-terminally biotinylated PADI4 …; test: SPR; 10 mM CaCl2
[11] = target: T1, N-terminally biotinylated PADI4 …; test: SPR; 10 mM CaCl2 + Cl-amidine

T1 sequence (Q9UM07 whole entry): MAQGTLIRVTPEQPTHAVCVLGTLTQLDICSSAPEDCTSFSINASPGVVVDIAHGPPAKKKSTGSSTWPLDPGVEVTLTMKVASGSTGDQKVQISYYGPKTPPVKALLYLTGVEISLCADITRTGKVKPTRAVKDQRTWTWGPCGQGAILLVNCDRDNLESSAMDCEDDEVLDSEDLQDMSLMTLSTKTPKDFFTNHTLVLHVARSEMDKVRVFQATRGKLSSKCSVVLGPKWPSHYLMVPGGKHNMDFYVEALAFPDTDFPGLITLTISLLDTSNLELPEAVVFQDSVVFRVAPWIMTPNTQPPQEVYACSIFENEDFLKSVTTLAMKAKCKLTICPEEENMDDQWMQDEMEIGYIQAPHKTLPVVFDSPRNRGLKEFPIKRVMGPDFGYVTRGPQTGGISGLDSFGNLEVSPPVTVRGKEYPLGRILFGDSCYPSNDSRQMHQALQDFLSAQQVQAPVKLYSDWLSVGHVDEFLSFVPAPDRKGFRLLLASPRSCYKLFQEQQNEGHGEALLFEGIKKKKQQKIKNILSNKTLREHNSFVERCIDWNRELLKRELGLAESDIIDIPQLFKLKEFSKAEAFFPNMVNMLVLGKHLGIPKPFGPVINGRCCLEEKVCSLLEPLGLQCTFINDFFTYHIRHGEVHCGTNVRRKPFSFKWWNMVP
Sequence of PADI4 variant E167A (Q9UM07 whole entry E167A): as the sequence (Q9UM07 whole entry) above, with E167A counted along it
Sequence of PADI4 variant R394A (Q9UM07 whole entry R394A): as the sequence (Q9UM07 whole entry) above, with R394A counted along it
Sequence of PADI4 variant C166F (Q9UM07 whole entry C166F): as the sequence (Q9UM07 whole entry) above, with C166F counted along it
Sequence of PADI4 variant D168A (Q9UM07 whole entry D168A): as the sequence (Q9UM07 whole entry) above, with D168A counted along it
Sequence of PADI4_D165A (Q9UM07 whole entry D165A): as the sequence (Q9UM07 whole entry) above, with D165A counted along it

Kd [1]: 1400 nM
Binder: {CH2CO}-YESCKYRQVLQL-NH2 (thioether N-4) [PADI4_11 variant with lysine at R5]

Kd [2]: > 10000 nM
Kd [3]: > 10000 nM
Kd [4]: 3000 nM
Kd [5]: 4000 nM
Kd [6]: 457 nM
Kd [7]: 700 nM
Kd [1]: 500 nM
Kd [8]: > 10000 nM
Kd [9]: > 5000 nM
Kd [10]: 457 nM
Kd [11]: 382 nM
B1: PADI4_11 (peptide)
chain: {CH2CO}-YESCRYRQVLQL-NH2
modifications: thioether N-4
SMILES: CC(C)C[C@H](NC(=O)[C@H](CCC(N)=O)NC(=O)[C@H](CC(C)C)NC(=O)[C@@H](NC(=O)[C@H](CCC(N)=O)NC(=O)[C@H](CCCNC(=N)N)NC(=O)[C@H](Cc1ccc(O)cc1)NC(=O)[C@H](CCCNC(=N)N)NC(=O)[C@@H]1CSCC(=O)N[C@@H](Cc2ccc(O)cc2)C(=O)N[C@@H](CCC(=O)O)C(=O)N[C@@H](CO)C(=O)N1)C(C)C)C(N)=O

Kd [1]: 700 nM
Binder: {CH2CO}-YESCRYKQVLQL-NH2 (thioether N-4) [PADI4_11 variant with lysine at R7]
